The values below come from US9718864B2 (HAINAN UNIVERSITY, dated 2017).

No end group written: not given here.

Holding throughout (assay): cell-based or functional assay
Experiment [1] concerns the target rat NMDA receptor NR1-2b/NR2D (rat, UniProt P35439).
The target of experiment [2] is rat NMDA receptor NR1-2b/NR2A (rat, UniProt P35439).
A further experiment addresses rat α7 nAChR (rat, UniProt Q05941).

B1: αO-conotoxin GeXIVA14 (peptide)
peptide: TCRSSGRYCRSPYDRRRRYCRRITDACV
modifications: not fully specified; ends and bridges not checked
Consider B1, for which, in experiment [1], the “Half-blocking dose IC50 of NMDA receptor current” value is no less than 10 µM.

B2: αO-conotoxin GeXIVA13 (peptide)
peptide: TCRSSGRYCRSPYDRRRRYCRRITDACV
modifications: not fully specified; ends and bridges not checked
With B2, the “Half-blocking dose IC50 of NMDA receptor current” value in experiment [2] is greater than 10 µM; in experiment [1], no less than 10 µM. In addition, the “Half-blocking dose IC50 of ACh-gated current” value with rat α7 nAChR was found to be 4.96 µM.
